# Reference: the DeepSol protein solubility set
# Assay: soluble on expression in E. coli; label from the status in PepcDB or PDB records
row,Sequence,soluble on expression in E. coli
1,MAYVTLYPNLILEALGKVRYPGTGKDLVSAGMVEDDIRIDGNKVSFSLIFDKANDPFIKSVVKAAESAILTYISEDVNIKGNISVKSKQAIPAPPAKLLPGVKNIIAVFSGKGGVGKSTVTANLAVSLAKSGYRVGLLDADIFGPSMPKMFHCEESRPVLEEVDGRELIVPEEVMGVKILSIGFFVDPDNAVLWRGSMAGNALTQLIRDANWGELDYFLIDMPPGTSDIHLTLVQTLAITGAVVVTTPQDVALADARKGISMFVGEKINVPVLGLVENMSWFTPAELPQNKYYIFGRDGGKNLAEELNIPLLGQIPLVQGICQSGDEGIPVAVRDDSMMGIAFRELAARVVEQVDYRNEHLDPTKVVEVAHR,not soluble
2,MCAALKRCAYRHKGKIMENTNIVTTEQQAPNTISASNAIFNVQALGQLTAFANLMADSQVTVPAHLAGKPADCMAIVMQAMQWGMNPYAVAQKTHLVNGVLGYEAQLVNAVIASSSAIHGRFHYRYGGDWERCTRTQEITRDKNGKNGKYTVTERVRGWTDEDEIGLFVQVGAILRGESEITWGEPLYLSGVVTRNSPLWVSNPKQQIAYLGVKYWARLYCPEVILGVYSPDEVEQREEREINPAPVQRMSVQEITSEVSTRTSAQESAANVDAVADDLRERIDTASSVDQAKAIRADIESQKALLGTALFTELKNKAVKRYYQVNAQNKVEAVINSIPNPGEPEAAEMFAKAESTLGAAKRHLGDELHDKYRVTLDDMKPEYIG,not soluble
3,MCARIQQLPVFFIFILYGSCATTKRNIYVLAINKLMEQQIRKYESFNDLPADCKKLFDSGEKDSFDLSRDWFLLLETTVIRQTKEICIFTLEIEGVTQGIWPTLLQKKGKLSLRQISSFTCFYSSLYQPLISSSLTVDKLADCLRWILSDTRTDVLRFDIMDPSQSSFNLHEQALKKIGFKTDRFFCWGNWYLPVNNQPFSVYLQNLSSRVRNTLERRKKKFLAGGHGKLEILTTHDKLPIAIQAWEKIYNASWKIPEPYPEFMPSLISLCAAKGWLRLGIAYYDEEPIAAQLWIVNQGRAAIYKLAYDEKFAHLSPGTILTAHLMQHAIDVDKVHEVDYLTGDDAYKKDWMSHRRERLGLVAYNLRSFWGLIGISKHIAGKIRKKILKSLK,not soluble
4,MCGDCVEKEYPNRGNTCLENGSFLLNFTGCAVCSKRDFMLITNKSLKEEDGEEIVTYDPDLCKNCHHVIARHEYTFSIMDEFQEYTMLCLLCAKPKILSVFSLMTPDKLEHHHHHH,soluble
5,MCGKTILLEVTPCDNFVFNKSTNLTDTAYVTLKNISEKPVCFKVKTSVPNMYVSRPNPDLLKPGEARQLSVKFRSSDKVSLNAKSYKLKIESCEFESEDIDDLKSFWSSIPNEKILVHKSPIILGTGSSPDFRNDQIASESSRQSSPIQNVSDDGKSSHHSTAKQLQENNENSKSLKYTKQLVEVPLGENQQADQTGTTCDKKDEFQKKNQLEVEIKFVDKIHEIKSQLEDSFELKLKEMEMRLEEKFEKRISRLTQFMETISLSNSPGNSRRVFELDDNFSIVAKKELEQMRQDFEKVLDGQNKIAEEKMNELRKRREELQV,not soluble
6,MCGRFVLFTTDESLLGHPALRIFHSIHAPKGMPPARYNIAPTTIIPILRVGTTPTEAVIEPARWGLIPAWKREVTLPPLFNARAETVTTKPSFRQAFSTQRCAIPMDGYYEWHNKKPYWITTGAPTWVAGLWDSGAGMLSATMITTDSVAPLDWLHHRMPRFLNNDELAVWLRGSADEASGLLTPGDASAFHTSLADPSVGNIRNDYPELIDAPTDLFSL,not soluble
7,MCHKLPKTHNCTFFRKLSNWHSGILISLEQKVTGSIPARETVQLAQWYFDFFGAEGHGFNPREGNCPTGAGVYLTSLEQKVTGSIPAWENNFCLIC,not soluble
8,MCLILFALDAHPRYRLVLAANRDEFYARPTAPAAFWDDAPQVLAGRDLTAGGTWCGVTRDGRIAAVTNYRDPGAHRVGARSRGELVAGFLGGDEAPSRWLEHLQRNGHDYNGFNLIFGDGNGLHYHSNRGAAASPLSPGIHGLSNHLLDTPWPKVARGRDALARLLATADEPAVDDLFAILANRTPAPDHLLPDTGVSLDWERLLSPLFITSPTYGTRSSTVILVDRSGQCTFVERSYNGAADHPRTVEYRFEVITLEHHHHHH,not soluble
9,MCPPYGANKFSRKKVMYVIVDIQGQQMKVEQGRRLFVHHIKDVESGASVEFDKVLLVDNNGAITVGSPLVEGAKVVCEVLTPLVKGDKVLIFHKKRRKGYRKLNGHRQQFTEILVKEVVA,not soluble
10,MCSLLKLLKISGKSVSDDDPIERYIKCEQCKCKRHWVEQLQRDEMDQMLHRLQFENKQLRKELEWKRGAASTMEIDRSSKRHQERHQSESRGGTLPLRNGRSVVSLKSTQSQNDVMDEAKALRLHKQRLEHRSRILEQQNEQLEMQLQRLKKVIDAQKQQAPLSTNSLLRGSHHQPWSPERARSGSASTLDRGLIVSSRHQEQAEAAGGGAEDSSDEAGGAGGGPRGSSVGQMQNLMTACDDLGKAMESLVVSVVYDSDDEEND,not soluble
11,MCSLNELITGIKELPEPDLTASRLMDAAADYVPLKLRGHIDAKDINSSPKTLENGGTEFFQALIDITHPRLRLYGSGKELAENVRIHRNFPTSHRSPIIYKSLDNNQYIYKTDVFIIIQNICGYRKDSTNNIIELNRFLEVMYLKAREETSRKYLEFVRFDADSFRKIEKKFEKFNQGACFVDRSLEQRNSNGDHLPIVQELDSMKSIEFIQHPIQRAKHKAVPIEDLKPGSYCILAVDALFELFNEIIWGSRVFEKHKVPKIIEYVLKIPTLLFKSELRFPHFIKTAHLHRLLASFEVSLSSFHFPANPVKEVRNAKADHGFTLQNLKNELTYLGLTETFPDITDYAEIAYNEVMRVKKEMLLRTCDLFDAIEHCQLLCIFNRSPFLKQFLHNQKACHRLVGLHCDLCIKEKVEKSENQEAWDLDESSSTKSPIDCKKCSQTLQTIEDVKKELKTSQNKENKMRKKVSELEKKLDVENVQNEQEVKEMEDDLRGKQEELNILRNDSLKVHDVLMEIADLKQKHSKLEKHVEGLKEENLKQERNYNLTQSNLEANLSSMREGLTILQQYTEELEQERQKYQEMLTARSEETSVQAEPAGGEEEMLDVTKQIEEAKEEKIRLKAEHDANERIIQQLLDKLANFS,not soluble
12,MCTVSLCVSLCLWMHNETVQVAMALEFKDKWLEQFYEDDKRHRLIPSSIENALFRKLEILDAAQAESDLRIPPGNRFEHLEGNLKGWCSIRVNKQYRLIFQWVDGVALNTYLDPHKY,not soluble
13,MDADDLRQLAINVSMDDIAASRDATKRLQQLFTPQQIVAMLKDAPSTHALRVLVGEMEAVGNPDVFHLIGGVLEDVFTQPSRESKAVLFAPAAQFLVEFIVRSAAAADTAVASSMSKALHRLIAIAGDSTEAAAFLGPCLDANFHNEQVLRLFDCDAVESAENKTVCGFLEQWTSLLPFMFEATLDAFENDPLLQANYTIASGVACRTVDVPSALRQRTMDILRAKDDSLCFAYVCRFWSIALLRHEANGQRDAAACVSTVMPAAEASERDERATEAIFDLLGSAASTQAGWDAVTRQLPCKTLQVRLSSTSPSLRLSTLNLMLCMLTSPHMNVSFFTKDLLLDAWQTRTSPDDMVRLALWRVANAALLQESLNRMLGAACASFLSSGAHEENVAVRSLKLTAAERLLRHSTLPENVKARLSQVVERGLYPAGSSGVSLIAKD,not soluble
14,MDADKDNIKQACDERSAEMDDMRGEQSMGLVHEIMSENKELDEEIKKLEAELQSDAREFQIKENVPEKKLKLTSVESPEDGCHFSNSSCSFQVSSQILYELQKGQALITFEKEEVAQNVISMGNHVVQMEGTPVKVSAHPVPLNTGVRFQVHVDISKMKINVTGIPDELSEEQTRDKLELSFCKSRNGGGEVESVDYDRKSRSAVITFVETGVVDKILKKKTYPLYMNQKCHSVAVSPCIERRLEKYQVFSAVSKKTVLLTGLEGIRVDEETGEDLLNIHFQRKNNGGGEVEVVKCSLDQSFAAYFKEEARETI,not soluble
15,MDAELLEIYNFLAKYPPFNELPEETLTKVTESVEISYYRQDTPIIHFGDHIQDLFVVRSGVVEVYRRKGELYNRLDEGDLFGQMGLLTNNKVRFPVKAIEDTLLYCIPVEVFQEIYDNFDSFADFVEVENSARLRQTISENKDANDLTTSKVKTLLTGDAPTINRGQTIQQAAQLMAQDNISSLLIVDPDFVLDEDDPQSPVLGIITDRDLCTRVLAEGLSPQDDVSTVMTTEVISLDHNAYIYEAMLTMLRYNVHHLPVVKNQLPIGIIETTDIVRYESQNSLLLVSSIFQQQSIEDLATVAEEVKSSFVRLVNEDANSHMVGSAMSVIGRSFKQRLLELAEEELGAPPIPYCFLALGSMGRDEQLLVTDQDNAIILDESYQEEKHGKYFEDLAKFVSDGLDACGYKYCTGDIMATNPMWRMTRSEWEECFADWIDDPNPKALLNASIFFDLDGVYGRLKWAEQLTSFIVRRARKNNRFLACLARNALNRTPPLGFFKDFVMEKDGQHKNSINLKRRGTAPLVDLIRVHALAVGSRAQNSFERLDDIIDAGILPKGRAQDLKDALEFISMVRIRHQATDVELGIEPDNNIEPENLSDFERRNLKDAFQILSNGQNFLKFRYQANKSFK,not soluble
16,MDAEQLLKAITPEVYDRLVYAVETGRWPEGTTLSREQRDSCMQAVMLYQSKHNTEAQHMTVAAGGEISFKSKQELKKQFNTDESDIVRVNPNLD,not soluble
17,MDAFIVDPVQGELYSGLSHTELADIIRLADSVENQLNGGNSFLDVFSTYMGQVISEFMHSNDNRIELLQRRLHSCSFLVNIEEMSYIDEALQCPITLAIPQRGVFLRNAEGSRVCSLYDEMALSRIINDGMHHPLSREPITLSMLVAREQCEFDCSIGHFTVRSDCYSV,soluble
18,MDALVANYASDSDSDGDAPAATAGEAAPVPPEPSALLPPPPLDLLQPPNFVDCSTMAQGSRVRSFPHVEGNYALHVYIPVVIPSDAKKHLVLVMRRAASFVPDLYAIDADYALSELCKDEQKLEKVLLSREFHVSLGRTVAIQVHQIESLVAMLRQKFRSQQRYWMDFNKWEHFVNDDCTRSFLSLEVTSTGLPEISKQITMVDDVYRLHGLPEFYKNPRPHISLAWALGDVSCKLKQAIKEIEKSQSSLGTSQISNLRCKFSHVVCKIGKKVYDICKLAD,not soluble
19,MDANTLNVSFEEILKGKKLDEDSIGLTLSPDKDHEDGSQVSPTQDRKELDQVVGEDEKDDFFE,soluble
20,MDATDDIRAGELASDWSGSPDAGVVFIGRIHTPWNRLKECPRHGRADGPVCRIEVFETWLPALAGIDDGTLLEVFYWLHRSRRDLLLQCPRNDGDARGTFSIRSPLRPNPIGTSIARVDRRDGANLFIRGLDCLDGTPLVDLKPDRAEFMPLAPPKPGDFQVGEPRR,soluble
21,MDAYEIIQYIGDAKKQTLVKVTLKGQLKEVTFPETIKVFNNCKTGTLFGDWADVKPFLEANKEKIEDYVVENDARNSAIPFLDLKDINARIEPGALIREKVEIGDQAVIMMGAILNIGAVVGAGTMIDMGAVLGGRATVGKHCHIGAGTVLAGVIEPPSAAPVVIENEVVIGANAVVLEGVRVGEGAVVAAGAVVVEDVPAHTVVAGVPAKVIKQIDDKTKSKTEILEELRKL,soluble
22,MDCRLGCGACCIAPSISSPIPGMPKGKPAGVRCVQLNDDNLCKLFGKPERPKVCHDFKPCPVVCGKTNQEALDNITELEQLTLEHHHHHH,soluble
23,MDDDPHFDQNVQTVIAKTEAYITESVKAGGTGRALRDAHAKGYGLVRGEVEILDGLPPEYAQGIYATPGTHDALIRFSNGSPHAGADARLGAATGLALKIFDIPGPTLLEDEPDTGTFDYANINGPIFFCNTVEHYLFIQELFLNAPAYFSQGRPGAHRFFTDFVTGKGTLDQDDWAWDEFLAFLRLSKTPPANLLLSSYWTMGAVRHGDYIAKVRITPDPSFAAAVVRRDIDPTSAQEVFRPALEAELQERPYAFDIQVQLCTDLERMPVEDTTVEWPEQLSPSVTVAKLRLPRQDISGPENLEKMDSLSFTPWRVTAEHAPLGNIMRSRKEVYRQSSMERHKLEHHHHHH,not soluble
